Measurements from US20150239975A1 (KOREA RESEARCH INSTITUTE OF BIOSCIENCE AND BIOTECHNOLOGY, published 2015).

Biological target: T1, transmembrane 4 L six family member 5 (TM4SF5) protein (human, UniProt O14894 1-197)
T1 sequence (looked up): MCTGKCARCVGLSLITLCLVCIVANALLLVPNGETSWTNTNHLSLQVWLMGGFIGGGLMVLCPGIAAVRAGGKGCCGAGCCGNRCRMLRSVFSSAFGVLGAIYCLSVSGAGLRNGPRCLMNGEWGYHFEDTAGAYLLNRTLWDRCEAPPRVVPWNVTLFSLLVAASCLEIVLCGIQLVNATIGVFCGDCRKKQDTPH
Assay: cell-based or functional assay

Protein	inhibition of invasion of TM4SF5-overexpressing liver cancer cells (Tp), transwell assay, 20 µg/mL antibody	inhibition of growth of TM4SF5-overexpressing liver cancer cells (Tp, T16) in the absence of serum, 20 µg/mL antibody	inhibition of infiltration of TM4SF5-overexpressing liver cancer cells (Tp), transwell assay, 20 µg/mL antibody
monoclonal antibody #79 (scFv-Fc form) (Fc fusion, not shown: a dimerising Fc or GST) scFv: GVQLQQSGAELVRPGASVKLSCKASGYTFTDYEMHWVKQTPVHGLEWIGAIDPETGGTAYNQKFKGKAILTADKSSSTAYMELRSLTSEDSAVYYCTVYGLAYWGQGTLVTVSAADVVMTQTPLSLPVSLGDQASISCRSSQSLVHSNGNTYLHWYLQKPGQSPKLLIYKVSNRFSGVPDRFSGSGSGTDFTLKISRVEAEDLGVYFCSQNTHVPYTFGGGTKLELK	49%		
monoclonal antibody #92 (scFv-Fc form) (Fc fusion, not shown: a dimerising Fc or GST) scFv: EVQLQQSVADLVRPGASVKLSCTASGFNIENTYMHWVKQRPEQGLEWIGRIDPANGNTKYAPKFQDKATITADTSSNTAYLQLSSLTSEDTAVYYCTSLGAYWGQGTLVTVSAADAVLTQTPLSLPVSLGDQASISCRSSQSIVHSNGNTYLEWYLQKPGQSPKLLIYKVSNRFSGVPDRFSGSGSGTDFTLKISRVEAEDLGVYFCSQSTHVPLTFGAGTKLEIK		~50%	46%
monoclonal antibody #27 (scFv-Fc form) (Fc fusion, not shown: a dimerising Fc or GST) scFv: QVQLQQFGAELVRPGASVTLSCKASGYTFTDYEMHWVKQTPVHGLEWIGAIDPETGGTAYNQKFKGKAILTADKSSSTAYMELRSLTSEDSAVYYCTRPYLGYWGQGTTVTVSSADAVVTQTPLSLPVSLGDQASISCRSSQSLVHSNGNTYLHWYLQKPGQSPKLLIYKVSNRFSGVPDRFSGSGSGTDFTLKISRVEAEDLGVYYCFQGSHIPLTFGAGTKLELK	56%		
monoclonal antibody #88 (scFv-Fc form) (Fc fusion, not shown: a dimerising Fc or GST) scFv: QVQLQQFGAELVRPGASVKLSCKASGYTFTDYEMHWVKQTPVHGLEWIGAIDPETGGTAYNQKFKGKATLTADKSSSTAYMELRSLTSEDSAVYYCTPNYWYFDVWGAGTSVTVSSADAVVTQTPLSLPVSLGDQASISCRSSQSLVHSNGNTYLHWYLQKPGQSPKLLIYKVSNRFSGVPDRFSGSGSGTDFTLKISRVEAEDLGVYFCSQSTHVPYTFGGGTKLELK		~50%	73%
monoclonal antibody #1 (scFv-Fc form) (Fc fusion, not shown: a dimerising Fc or GST) scFv: EVQLQQFGAELVRPGASVTLSCKASGYTFTDYEMHWVKQTPVHGLEWIGAIDPETGGTAYNQKFKGKAILTADKSSSTAYMELRSLTSEDSAVYFCARLTLFYGNYDWPFDVWGTGTSVTVSSADIVMTQSQKFMSTSVGDRVSITCKASQNVRTAVAWYQQKPGQSPKLLIYWASTRHTGVPDRFTGSGSGTDFTLTISNVQSEDLADYFCQQYSSYPFTFGSGTKLEIK	83%		
